Source: US20220378912A1 (Novartis, published 2022)

T1: recombinant human P-selectin (human, UniProt P16109 42-771, limits assumed)
T1 construct: Coated on ELISA plates
T1 sequence (looked up): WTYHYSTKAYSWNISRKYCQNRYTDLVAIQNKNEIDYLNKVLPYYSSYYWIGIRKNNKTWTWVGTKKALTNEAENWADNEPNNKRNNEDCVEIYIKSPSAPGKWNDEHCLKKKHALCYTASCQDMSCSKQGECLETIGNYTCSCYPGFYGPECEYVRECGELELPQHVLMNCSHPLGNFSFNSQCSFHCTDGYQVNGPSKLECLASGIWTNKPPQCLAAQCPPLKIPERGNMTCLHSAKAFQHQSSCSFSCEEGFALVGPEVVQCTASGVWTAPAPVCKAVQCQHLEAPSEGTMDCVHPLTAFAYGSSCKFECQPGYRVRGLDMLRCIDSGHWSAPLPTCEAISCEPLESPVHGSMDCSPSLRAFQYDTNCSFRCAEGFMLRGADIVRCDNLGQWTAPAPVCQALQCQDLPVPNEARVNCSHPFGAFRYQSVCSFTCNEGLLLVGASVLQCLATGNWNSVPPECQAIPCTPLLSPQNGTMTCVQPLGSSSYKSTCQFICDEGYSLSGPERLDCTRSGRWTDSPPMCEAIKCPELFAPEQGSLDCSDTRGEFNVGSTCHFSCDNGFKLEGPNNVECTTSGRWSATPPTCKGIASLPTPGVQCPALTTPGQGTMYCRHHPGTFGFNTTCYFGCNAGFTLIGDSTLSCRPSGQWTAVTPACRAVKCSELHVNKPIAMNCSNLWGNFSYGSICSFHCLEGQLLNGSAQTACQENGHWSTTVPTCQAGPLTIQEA

T2: P-selectin fused to immunoglobulin (Psel-Ig) (UniProt P16109 42-771, limits assumed)
T2 construct: also called spiked P-selectin; not shown: immunoglobulin part of the fusion
T2 sequence (looked up): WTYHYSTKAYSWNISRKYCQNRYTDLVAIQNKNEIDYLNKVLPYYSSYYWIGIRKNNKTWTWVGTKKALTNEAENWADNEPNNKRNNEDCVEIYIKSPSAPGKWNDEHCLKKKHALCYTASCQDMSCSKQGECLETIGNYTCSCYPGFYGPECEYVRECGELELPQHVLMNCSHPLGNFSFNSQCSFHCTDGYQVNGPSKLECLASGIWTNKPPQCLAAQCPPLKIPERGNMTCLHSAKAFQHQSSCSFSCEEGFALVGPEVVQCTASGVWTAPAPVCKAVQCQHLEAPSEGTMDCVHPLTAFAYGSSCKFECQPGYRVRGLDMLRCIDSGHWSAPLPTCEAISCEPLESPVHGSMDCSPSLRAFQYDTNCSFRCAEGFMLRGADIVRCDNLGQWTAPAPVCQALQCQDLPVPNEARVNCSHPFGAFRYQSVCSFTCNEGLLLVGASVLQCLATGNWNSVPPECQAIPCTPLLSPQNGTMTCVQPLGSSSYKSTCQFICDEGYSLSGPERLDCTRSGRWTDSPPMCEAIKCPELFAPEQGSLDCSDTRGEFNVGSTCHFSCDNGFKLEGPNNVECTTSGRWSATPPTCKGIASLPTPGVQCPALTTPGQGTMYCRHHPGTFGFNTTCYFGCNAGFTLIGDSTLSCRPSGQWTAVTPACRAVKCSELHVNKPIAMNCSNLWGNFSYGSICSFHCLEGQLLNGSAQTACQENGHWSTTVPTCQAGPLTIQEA


biological target: T1, recombinant human P-selectin; test: P-selectin binding assay of Example 2 (ELISA), relative %; CZE peak comprising the variant
Procedure: In the ELISA, potency and identity of SEG101 samples are measured based on their ability to bind recombinant human P-selectin. ELISA plates are coated with recombinant human P-selectin, and graded amounts of SEG101 are added. Bound SEG101 is quantified using an anti-human IgG antibody coupled to horseradish peroxidase followed by the addition of a colorimetric substrate. Results of the colorimetric reaction are measured by light absorption. The potency of a SEG101 test sample is quantified by comparing its ability to bind P-selectin to that of a SEG101 reference standard. The samples and the standard are normalized on the basis of protein content. Relative potency is calculated using a parallel line assay according to the European Pharmacopoeia. The final result is expressed as relative potency (in percent) of a sample compared to the reference standard.

Binder	P-selectin binding affinity [%]
D-succinimide of crizanlizumab (antibody, human IgG2, kappa, succinimide at position 32, One light chain with succinimide, the other with aspartic acid at position 32; also called D-Succi-crizanlizumab) heavy: QVQLVQSGAEVKKPGASVKVSCKVSGYTFTSYDINWVRQAPGKGLEWMGWIYPGDGSIKYNEKFKGRVTMTVDKSTDTAYMELSSLRSEDTAVYYCARRGEYGNYEGAMDYWGQGTLVTVSSASTKGPSVFPLAPCSRSTSESTAALGCLVKDYFPEPVTVSWNSGALTSGVHTFPAVLQSSGLYSLSSVVTVTSSNFGTQTYTCNVDHKPSNTKVDKTVERKCCVECPPCPAPPVAGPSVFLFPPKPKDTLMISRTPEVTCVVVDVSHEDPEVQFNWYVDGMEVHNAKTKPREEQFNSTFRVVSVLTVVHQDWLNGKEYKCAVSNKGLPAPIEKTISKTKGQPREPQVYTLPPSREEMTKNQVSLTCLVKGFYPSDIAVEWESNGQPENNYKTTPPMLDSDGSFFLYSKLTVDKSRWQQGNVFSCSVMHEALHNHYTQKSLSLSPGK light 1: DIQMTQSPSSLSASVGDRVTITCKASQSVDYDGHSYMNWYQQKPGKAPKLLIYAASNLESGVPSRFSGSGSGTDFTLTISSLQPEDFATYYCQQSDENPLTFGGGTKVEIKRTVAAPSVFIFPPSDEQLKSGTASVVCLLNNFYPREAKVQWKVDNALQSGNSQESVTEQDSKDSTYSLSSTLTLSKADYEKHKVYACEVTHQGLSSPVTKSFNRGEC light 2: DIQMTQSPSSLSASVGDRVTITCKASQSVDYDGHSYMNWYQQKPGKAPKLLIYAASNLESGVPSRFSGSGSGTDFTLTISSLQPEDFATYYCQQSDENPLTFGGGTKVEIKRTVAAPSVFIFPPSDEQLKSGTASVVCLLNNFYPREAKVQWKVDNALQSGNSQESVTEQDSKDSTYSLSSTLTLSKADYEKHKVYACEVTHQGLSSPVTKSFNRGEC	78
isoD-succinimide of crizanlizumab (antibody, human IgG2, kappa, isoaspartic acid at position 32; succinimide at position 32, One light chain with succinimide, the other with isoaspartic acid at position 32; also called isoD-Succi-crizanlizumab) heavy: QVQLVQSGAEVKKPGASVKVSCKVSGYTFTSYDINWVRQAPGKGLEWMGWIYPGDGSIKYNEKFKGRVTMTVDKSTDTAYMELSSLRSEDTAVYYCARRGEYGNYEGAMDYWGQGTLVTVSSASTKGPSVFPLAPCSRSTSESTAALGCLVKDYFPEPVTVSWNSGALTSGVHTFPAVLQSSGLYSLSSVVTVTSSNFGTQTYTCNVDHKPSNTKVDKTVERKCCVECPPCPAPPVAGPSVFLFPPKPKDTLMISRTPEVTCVVVDVSHEDPEVQFNWYVDGMEVHNAKTKPREEQFNSTFRVVSVLTVVHQDWLNGKEYKCAVSNKGLPAPIEKTISKTKGQPREPQVYTLPPSREEMTKNQVSLTCLVKGFYPSDIAVEWESNGQPENNYKTTPPMLDSDGSFFLYSKLTVDKSRWQQGNVFSCSVMHEALHNHYTQKSLSLSPGK light 1: DIQMTQSPSSLSASVGDRVTITCKASQSVDYDGHSYMNWYQQKPGKAPKLLIYAASNLESGVPSRFSGSGSGTDFTLTISSLQPEDFATYYCQQSDENPLTFGGGTKVEIKRTVAAPSVFIFPPSDEQLKSGTASVVCLLNNFYPREAKVQWKVDNALQSGNSQESVTEQDSKDSTYSLSSTLTLSKADYEKHKVYACEVTHQGLSSPVTKSFNRGEC light 2: DIQMTQSPSSLSASVGDRVTITCKASQSVDYDGHSYMNWYQQKPGKAPKLLIYAASNLESGVPSRFSGSGSGTDFTLTISSLQPEDFATYYCQQSDENPLTFGGGTKVEIKRTVAAPSVFIFPPSDEQLKSGTASVVCLLNNFYPREAKVQWKVDNALQSGNSQESVTEQDSKDSTYSLSSTLTLSKADYEKHKVYACEVTHQGLSSPVTKSFNRGEC	63
SEG101 (crizanlizumab), humanised monoclonal antibody against human P-selectin (antibody, human IgG2, kappa, V domains shown, also called SelG1; main peak) VH: QVQLVQSGAEVKKPGASVKVSCKVSGYTFTSYDINWVRQAPGKGLEWMGWIYPGDGSIKYNEKFKGRVTMTVDKSTDTAYMELSSLRSEDTAVYYCARRGEYGNYEGAMDYWGQGTLVTVSS VL: DIQMTQSPSSLSASVGDRVTITCKASQSVDYDGHSYMNWYQQKPGKAPKLLIYAASNLESGVPSRFSGSGSGTDFTLTISSLQPEDFATYYCQQSDENPLTFGGGTKVEIKR	90
hetero-iso-crizanlizumab (antibody, human IgG2, kappa, isoaspartic acid at position 32, Aspartic acid at position 32 of only one light chain replaced by isoaspartic acid; also called iso-crizanlizumab (one light chain)) heavy: QVQLVQSGAEVKKPGASVKVSCKVSGYTFTSYDINWVRQAPGKGLEWMGWIYPGDGSIKYNEKFKGRVTMTVDKSTDTAYMELSSLRSEDTAVYYCARRGEYGNYEGAMDYWGQGTLVTVSSASTKGPSVFPLAPCSRSTSESTAALGCLVKDYFPEPVTVSWNSGALTSGVHTFPAVLQSSGLYSLSSVVTVTSSNFGTQTYTCNVDHKPSNTKVDKTVERKCCVECPPCPAPPVAGPSVFLFPPKPKDTLMISRTPEVTCVVVDVSHEDPEVQFNWYVDGMEVHNAKTKPREEQFNSTFRVVSVLTVVHQDWLNGKEYKCAVSNKGLPAPIEKTISKTKGQPREPQVYTLPPSREEMTKNQVSLTCLVKGFYPSDIAVEWESNGQPENNYKTTPPMLDSDGSFFLYSKLTVDKSRWQQGNVFSCSVMHEALHNHYTQKSLSLSPGK light 1: DIQMTQSPSSLSASVGDRVTITCKASQSVDYDGHSYMNWYQQKPGKAPKLLIYAASNLESGVPSRFSGSGSGTDFTLTISSLQPEDFATYYCQQSDENPLTFGGGTKVEIKRTVAAPSVFIFPPSDEQLKSGTASVVCLLNNFYPREAKVQWKVDNALQSGNSQESVTEQDSKDSTYSLSSTLTLSKADYEKHKVYACEVTHQGLSSPVTKSFNRGEC light 2: DIQMTQSPSSLSASVGDRVTITCKASQSVDYDGHSYMNWYQQKPGKAPKLLIYAASNLESGVPSRFSGSGSGTDFTLTISSLQPEDFATYYCQQSDENPLTFGGGTKVEIKRTVAAPSVFIFPPSDEQLKSGTASVVCLLNNFYPREAKVQWKVDNALQSGNSQESVTEQDSKDSTYSLSSTLTLSKADYEKHKVYACEVTHQGLSSPVTKSFNRGEC	105
homo-iso-crizanlizumab (antibody, human IgG2, kappa, V domains shown, isoaspartic acid at position 32, Aspartic acid at position 32 of both light chains replaced by isoaspartic acid; also called iso-crizanlizumab (both light chains)) VH: QVQLVQSGAEVKKPGASVKVSCKVSGYTFTSYDINWVRQAPGKGLEWMGWIYPGDGSIKYNEKFKGRVTMTVDKSTDTAYMELSSLRSEDTAVYYCARRGEYGNYEGAMDYWGQGTLVTVSS VL: DIQMTQSPSSLSASVGDRVTITCKASQSVDYDGHSYMNWYQQKPGKAPKLLIYAASNLESGVPSRFSGSGSGTDFTLTISSLQPEDFATYYCQQSDENPLTFGGGTKVEIKR	119

biological target: T2, P-selectin fused to immunoglobulin …; test: SPR competition: dilution series of crizanlizumab and any variants thereof inhibiting Psel-Ig binding to immobilised biotinylated GSP-6 (standard inhibition curve)
Procedure: An SPR-based method was used to measure ex vivo % P-selectin inhibition of crizanlizumab in human serum samples from human donors treated with crizanlizumab. This PD assay measured the ability of crizanlizumab and it variants in serum to block P-selectin (antigen; ligand) binding to PSGL-1 (ligand receptor). Blockage by crizanlizumab and any variants thereof was measured as % inhibition of spiked P-selectin fused to immunoglobulin (Psel-Ig) binding to glycosulfopeptide 6 (GSP-6), a peptide analogue mimicking the PSGL-1 binding domain. For example, streptavidin was immobilized on 2 channels (FC-2 and FC-3) of the used biosensor chip using standard amine coupling followed by injection of biotinylated GSP-6 to immobilize the peptide for analysis. A reference channel (FC-1) was prepared by biotin-blocking streptavidin. The pre-treatment samples established the maximum binding for each subject and this was used as the basis for calculating % inhibition using the post-dose serum samples from the subject at various time points. Quantified crizanlizumab and any variants thereof in a series of dilutions were used to generate standard inhibitition curve, showing an IC₅₀ value of 5.2 μg/mL for crizanlizumab under all conditions.

Binder	IC50 [µg/mL]
SEG101 (crizanlizumab), humanised monoclonal antibody against human P-selectin (antibody, human IgG2, kappa, V domains shown, also called SelG1; main peak) VH: QVQLVQSGAEVKKPGASVKVSCKVSGYTFTSYDINWVRQAPGKGLEWMGWIYPGDGSIKYNEKFKGRVTMTVDKSTDTAYMELSSLRSEDTAVYYCARRGEYGNYEGAMDYWGQGTLVTVSS VL: DIQMTQSPSSLSASVGDRVTITCKASQSVDYDGHSYMNWYQQKPGKAPKLLIYAASNLESGVPSRFSGSGSGTDFTLTISSLQPEDFATYYCQQSDENPLTFGGGTKVEIKR	5.2
